Laboratory results reported in patent US5783663A, “Peptide ligands for affinity purification of fibrinogen” (Bayer Corporation, priority 1998, dated 1998).

What was measured:
Ribonuclease S-protein = target: T1, Ribonuclease S-protein (Bos taurus, UniProt P61823); assay: Radiological screening of library spiked with YNFEVL-beads against 14C-S-protein, scintillation counting of isolated beads; format: binding
T1 construct: Ribonuclease S-protein was purchased from Sigma (St. Louis, Mo.); purchased Sigma (St. Louis, Mo.)
T1 sequence (P61823 47-150 limits assumed): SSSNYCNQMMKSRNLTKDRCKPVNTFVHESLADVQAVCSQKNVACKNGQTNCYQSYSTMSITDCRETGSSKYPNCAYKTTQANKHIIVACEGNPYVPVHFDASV
Source text: Following the protocol of Jentoft et al. (21), aminated beads (resin modified with TOTDA-linker) and proteins were labeled using reductive ^14 C-methylation. The ^14 C-methylated beads are hereafter referred to as ^14 C-Test Beads. The ^14 C-labeled formaldehyde was obtained from Dupont-NEN (55 Ci/mole, Boston, Mass.). Ribonuclease S-protein was purchased from Sigma (St. Louis, Mo.); human fibrinogen, from Chromogenix AB (Molndal, Sweden). To separate ^14 C-labeled protein from non-incorporated ^14 C-formaldehyde, an Econopac 10DG Desalting Column (Biorad, Hercules, Calif.) was employed. The ^14 C-labeled proteins were stored in the labeling buffer, 0.1M sodium phosphate buffer (Fisher, Pittsburgh, Pa.), pH 7, at -18° C. Pure protein solutions were quantitated using A280, with extinction coefficients of 1.5 and 0.73 for fibrinogen and S-protein, respectively. The resulting protein concentrations were 30 μM for ^14 C-S-protein, and 4 μM for ^14 C-fibrinogen. Maximal labeling yield was calculated based on maximum of two ^14 C-labeled methyl groups per mole of amino groups.
The number of disintegrations per minute, DPM, of radioactive samples was determined using a 1500 TriCarb Liquid Scintillation Analyzer from Packard (Meridan, Conn.) and CytoScint ES scintillation liquid from ICN (Casta Mesa, Calif.). Values of DPM are corrected for the background of the liquid scintillation counter (30-35 DPM) unless specified otherwise.
Library beads, 20 mg in dry weight per experiment, were first mixed with 1 ml of blocking solution to block non-specific interactions between the peptides and ^14 C-protein. For screenings against S-protein, 2% bovine serum albumin (BSA, Sigma) in PBS containing 0.05% Tween (Sigma) was used as blocking solution. For screenings against fibrinogen, either 2% BSA in PBS with 0.05% Tween or Blocker™Casein (1%) in PBS (Pierce) was used. Each mixture of beads and blocking solution was incubated in a Cryotube (Nunc, Denmark) for 2 hours on a tube rotator.
The blocked library beads were then exposed to target protein by pipetting the ^14 C-labeled protein directly into the mixture of beads and blocking solution. […] For fibrinogen experiments, 13 μl and 65 μl of the 4 μM ^14 C-fibrinogen solution was added, yielding final fibrinogen concentrations of 50 nM and 250 nM, respectively. The mixtures of beads, blocking solution, and protein solution were further rotated for 1.5 hours (S-protein experiment) and for 1 hour (fibrinogen experiment).
After completion of blocking and binding, the beads were transferred to a Polyprep column (Biorad) and rinsed with PBS containing 0.05% Tween 20 (Sigma) until the column flow-through reached background DPM levels. The total rinsing volumes were 200 ml and 140 ml for S-protein and fibrinogen, respectively. […]

S-protein = target: T2, S-protein (Bos taurus, UniProt P61823); conditions: reference (3); cited from earlier work
T2 sequence (P61823 47-150 limits assumed): T1 sequence (P61823 47-150 limits assumed)

Substance: YNFEVL
- amount of protein bound per bead, average (Ribonuclease S-protein; 14C-S-protein 1 µM in PBS with 0.05% Tween 20, 2% BSA, average of isolated positive beads): 133 fmol protein/bead
- radioactivity of 14C-S-protein bound per bead (Ribonuclease S-protein; 14C-S-protein 1 µM in PBS with 0.05% Tween 20, 2% BSA, background (33 DPM) subtracted): 41-243 DPM/bead
- amount of protein bound per bead (Ribonuclease S-protein; 14C-S-protein 1 µM in PBS with 0.05% Tween 20, 2% BSA, range over isolated positive beads): 49-289 fmol protein/bead
- peptide to protein ratio (YNFEVL-peptide molecules to 1 S-protein molecule) (Ribonuclease S-protein; from average 70 pmol peptide/bead and 133 fmol protein/bead): ~500
- association constant for binding S-protein (S-protein): 10^4 -10^5 M^-1
